Results: patent US20100203046A1 (Biogen, published 2010)
Like-named read-outs stand apart in the source and are kept apart here.

How the values were obtained:
[1] = biological target: T1, human FcγRIII (CD16), CD16a (F158), on CD16-transfected Jurkat cells (human, UniProt P08637 17-254); experiment: CD16 bridging assay, transient
T1 construct: whole, on cells

[2] = biological target: T1, human FcγRIII (CD16), CD16a (F158), on …; experiment: CD16 bridging assay, transient; remark: listed apart in the source
[3] = biological target: T2, human C1q (Sigma C0660) (human, UniProt P02745 23-245; P02746 28-253; P02747 29-245); experiment: C1q ELISA on CD2, transient
T2 construct: Bought protein; also called complement protein C1q
Experimental: The C1q binding assay was performed by coating 96 well Maxisorb ELISA plates (Nalge-Nunc Rochester, N.Y., USA) with 50 μl recombinant soluble human CD2 at 10 μg/ml overnight at 4° C. in PBS. The wells were aspirated and washed three times with wash buffer (PBS, 0.05% Tween 20) and blocked for >1 h with 200 μ/well of block/diluent buffer (0.1 M Na₂HPO₄, pH 7, 0.1 M NaCl, 0.05% Tween 20, 0.1% gelatin). The antibody to be tested was diluted in block/diluent buffer starting at 15 μg/ml with 3-fold dilutions. 50 μl were added per well, and the plates incubated for 2 h at room temperature. After aspirating and washing as above, 50 μl/well of 2 μg/ml of Sigma human C1q (C0660) diluted in block/diluent buffer was added and incubated for 1.5 h at room temperature. After aspirating and washing as above, 50 μl/well of chicken anti human C1q (Cedarlane laboratories CL2101AP), diluted 2,000-fold in block/diluent buffer, was added. After incubation for 1.5 h at room temperature, the wells were aspirated and washed as above. 50 μl/well of donkey F(ab′)₂ anti chicken IgY HRP conjugate (Jackson ImmunoResearch 703-036-155) diluted to 1:5,000 in block/diluent was then added, and the wells incubated for 1 h at room temperature. After aspirating and washing as above, 100 μl TMB substrate (420 μM TMB, 0.004% H₂O₂ in 0.1 M sodium acetate/citric acid buffer, pH 4.9) was added and incubated for 2 min before the reaction was stopped with 100 μl 2 N sulfuric acid. The absorbance was read at 450 nm with a Softmax P instrument, and Softmax software was used to determine the relative binding affinity (C value) with a 4-parameter fit.

T2 sequence (P02745 23-245 limits assumed, chain 1 of 3): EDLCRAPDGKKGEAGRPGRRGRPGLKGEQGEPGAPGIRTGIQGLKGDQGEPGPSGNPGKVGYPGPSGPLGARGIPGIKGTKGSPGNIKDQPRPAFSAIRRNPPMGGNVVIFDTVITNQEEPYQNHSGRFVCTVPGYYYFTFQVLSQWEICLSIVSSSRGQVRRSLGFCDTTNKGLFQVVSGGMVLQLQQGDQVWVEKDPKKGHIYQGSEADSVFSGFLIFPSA
T2 sequence (P02746 28-253 limits assumed, chain 2 of 3): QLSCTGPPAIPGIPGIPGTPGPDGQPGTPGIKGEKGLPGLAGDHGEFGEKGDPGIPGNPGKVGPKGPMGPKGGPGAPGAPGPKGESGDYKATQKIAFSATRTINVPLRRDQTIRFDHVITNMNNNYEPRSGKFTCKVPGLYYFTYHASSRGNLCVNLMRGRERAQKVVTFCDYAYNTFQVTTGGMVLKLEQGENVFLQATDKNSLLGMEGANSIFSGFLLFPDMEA
T2 sequence (P02747 29-245 limits assumed, chain 3 of 3): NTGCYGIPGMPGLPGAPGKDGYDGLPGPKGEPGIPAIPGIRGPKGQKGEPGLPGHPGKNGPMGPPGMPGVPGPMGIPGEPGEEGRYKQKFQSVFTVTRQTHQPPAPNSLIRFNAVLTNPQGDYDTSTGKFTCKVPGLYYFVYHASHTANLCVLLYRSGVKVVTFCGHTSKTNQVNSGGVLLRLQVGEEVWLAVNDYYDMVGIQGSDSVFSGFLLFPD
T1 sequence (P08637 17-254): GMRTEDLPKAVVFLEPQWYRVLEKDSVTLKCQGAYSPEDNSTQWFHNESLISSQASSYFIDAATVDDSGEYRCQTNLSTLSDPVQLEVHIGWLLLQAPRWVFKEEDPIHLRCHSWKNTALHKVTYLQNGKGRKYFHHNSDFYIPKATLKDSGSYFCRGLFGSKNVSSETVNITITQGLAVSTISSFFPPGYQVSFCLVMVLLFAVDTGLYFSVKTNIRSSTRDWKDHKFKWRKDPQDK

B1: chCB6-huIgG1 E294T (antibody, name in EU numbering)
heavy: not shown
light: QIVLTQSPAIMSASPGEKVTMTCRASSSVSHMHWYQQKSGTSPKRWIYDTSKLASGVPARFSGSGSGTSYSLTISSVEAEDAATYYCQQWSSNPLTFGAGTKLELKRTVAAPSVFIFPPSDEQLKSGTASVVCLLNNFYPREAKVQWKVDNALQSGNSQESVTEQDSKDSTYSLSSTLTLSKADYEKHKVYACEVTHQGLSSPVTKSFNRGEC
notes: copies: 2 + 2
Q: How did the “fold decrease in binding vs WT” value [1] turn out when B1 was run?
A: The value was 8 fold.

B2: chCB6-huIgG1 S239D/A378Y (antibody, name in EU numbering)
heavy: not shown
light: QIVLTQSPAIMSASPGEKVTMTCRASSSVSHMHWYQQKSGTSPKRWIYDTSKLASGVPARFSGSGSGTSYSLTISSVEAEDAATYYCQQWSSNPLTFGAGTKLELKRTVAAPSVFIFPPSDEQLKSGTASVVCLLNNFYPREAKVQWKVDNALQSGNSQESVTEQDSKDSTYSLSSTLTLSKADYEKHKVYACEVTHQGLSSPVTKSFNRGEC
notes: copies: 2 + 2
Q: For B2, which “fold increase in binding vs WT” value [2] is on record?
A: The value was 4 fold.

B3: chCB6-huIgG1 I332D/A378Y (antibody, name in EU numbering)
heavy: not shown
light: QIVLTQSPAIMSASPGEKVTMTCRASSSVSHMHWYQQKSGTSPKRWIYDTSKLASGVPARFSGSGSGTSYSLTISSVEAEDAATYYCQQWSSNPLTFGAGTKLELKRTVAAPSVFIFPPSDEQLKSGTASVVCLLNNFYPREAKVQWKVDNALQSGNSQESVTEQDSKDSTYSLSSTLTLSKADYEKHKVYACEVTHQGLSSPVTKSFNRGEC
notes: copies: 2 + 2
Q: For B3, which “fold increase in binding vs WT” value [2] is on record?
A: The value was 5 fold.

B4: chCB6-huIgG1 S239D/H435G (antibody, name in EU numbering)
heavy: not shown
light: QIVLTQSPAIMSASPGEKVTMTCRASSSVSHMHWYQQKSGTSPKRWIYDTSKLASGVPARFSGSGSGTSYSLTISSVEAEDAATYYCQQWSSNPLTFGAGTKLELKRTVAAPSVFIFPPSDEQLKSGTASVVCLLNNFYPREAKVQWKVDNALQSGNSQESVTEQDSKDSTYSLSSTLTLSKADYEKHKVYACEVTHQGLSSPVTKSFNRGEC
notes: copies: 2 + 2
Q: With B4 as the binder, how does the “fold increase in binding vs WT” value [2] read?
A: The value was 3 fold.

B5: chCB6-huIgG1 R301S (antibody, name in EU numbering)
heavy: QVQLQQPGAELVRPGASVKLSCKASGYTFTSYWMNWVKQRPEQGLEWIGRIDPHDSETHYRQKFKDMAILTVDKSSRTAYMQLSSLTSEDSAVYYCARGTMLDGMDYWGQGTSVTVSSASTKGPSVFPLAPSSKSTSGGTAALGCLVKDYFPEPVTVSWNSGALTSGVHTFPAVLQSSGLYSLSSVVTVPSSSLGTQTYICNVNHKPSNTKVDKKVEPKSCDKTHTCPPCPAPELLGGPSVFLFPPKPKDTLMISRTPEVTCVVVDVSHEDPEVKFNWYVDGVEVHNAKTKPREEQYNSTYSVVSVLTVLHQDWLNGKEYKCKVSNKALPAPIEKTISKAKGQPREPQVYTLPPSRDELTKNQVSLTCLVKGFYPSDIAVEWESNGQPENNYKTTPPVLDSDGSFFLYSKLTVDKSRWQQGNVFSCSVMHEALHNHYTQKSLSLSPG
light: QIVLTQSPAIMSASPGEKVTMTCRASSSVSHMHWYQQKSGTSPKRWIYDTSKLASGVPARFSGSGSGTSYSLTISSVEAEDAATYYCQQWSSNPLTFGAGTKLELKRTVAAPSVFIFPPSDEQLKSGTASVVCLLNNFYPREAKVQWKVDNALQSGNSQESVTEQDSKDSTYSLSSTLTLSKADYEKHKVYACEVTHQGLSSPVTKSFNRGEC
notes: copies: 2 + 2
Q: What does the source list for B5?
A: binding result [3]: binds; binding result [1]: binds

B6: chCB6-huIgG1 S239D/A378F (antibody, name in EU numbering)
heavy: not shown
light: QIVLTQSPAIMSASPGEKVTMTCRASSSVSHMHWYQQKSGTSPKRWIYDTSKLASGVPARFSGSGSGTSYSLTISSVEAEDAATYYCQQWSSNPLTFGAGTKLELKRTVAAPSVFIFPPSDEQLKSGTASVVCLLNNFYPREAKVQWKVDNALQSGNSQESVTEQDSKDSTYSLSSTLTLSKADYEKHKVYACEVTHQGLSSPVTKSFNRGEC
notes: copies: 2 + 2
Q: B6 was tested. Which “fold increase in binding vs WT” value [2] did it give?
A: Its value is 5 fold.

B7: chCB6-huIgG1 I332D/H435S (antibody, name in EU numbering)
heavy: not shown
light: QIVLTQSPAIMSASPGEKVTMTCRASSSVSHMHWYQQKSGTSPKRWIYDTSKLASGVPARFSGSGSGTSYSLTISSVEAEDAATYYCQQWSSNPLTFGAGTKLELKRTVAAPSVFIFPPSDEQLKSGTASVVCLLNNFYPREAKVQWKVDNALQSGNSQESVTEQDSKDSTYSLSSTLTLSKADYEKHKVYACEVTHQGLSSPVTKSFNRGEC
notes: copies: 2 + 2
Q: Does B7 bind [2]?
A: Result: binds

B8: chCB6-huIgG1 I332D/H435G (antibody, name in EU numbering)
heavy: not shown
light: QIVLTQSPAIMSASPGEKVTMTCRASSSVSHMHWYQQKSGTSPKRWIYDTSKLASGVPARFSGSGSGTSYSLTISSVEAEDAATYYCQQWSSNPLTFGAGTKLELKRTVAAPSVFIFPPSDEQLKSGTASVVCLLNNFYPREAKVQWKVDNALQSGNSQESVTEQDSKDSTYSLSSTLTLSKADYEKHKVYACEVTHQGLSSPVTKSFNRGEC
notes: copies: 2 + 2
Q: Does B8 bind [2]?
A: Result: binds

B9: chCB6-huIgG1 S239D/A378W (antibody, name in EU numbering)
heavy: not shown
light: QIVLTQSPAIMSASPGEKVTMTCRASSSVSHMHWYQQKSGTSPKRWIYDTSKLASGVPARFSGSGSGTSYSLTISSVEAEDAATYYCQQWSSNPLTFGAGTKLELKRTVAAPSVFIFPPSDEQLKSGTASVVCLLNNFYPREAKVQWKVDNALQSGNSQESVTEQDSKDSTYSLSSTLTLSKADYEKHKVYACEVTHQGLSSPVTKSFNRGEC
notes: copies: 2 + 2
Q: B9 was tested. Which “fold increase in binding vs WT” value [2] did it give?
A: Its value is 4 fold.

B10: chCB6-huIgG1 R301A (antibody, name in EU numbering)
heavy: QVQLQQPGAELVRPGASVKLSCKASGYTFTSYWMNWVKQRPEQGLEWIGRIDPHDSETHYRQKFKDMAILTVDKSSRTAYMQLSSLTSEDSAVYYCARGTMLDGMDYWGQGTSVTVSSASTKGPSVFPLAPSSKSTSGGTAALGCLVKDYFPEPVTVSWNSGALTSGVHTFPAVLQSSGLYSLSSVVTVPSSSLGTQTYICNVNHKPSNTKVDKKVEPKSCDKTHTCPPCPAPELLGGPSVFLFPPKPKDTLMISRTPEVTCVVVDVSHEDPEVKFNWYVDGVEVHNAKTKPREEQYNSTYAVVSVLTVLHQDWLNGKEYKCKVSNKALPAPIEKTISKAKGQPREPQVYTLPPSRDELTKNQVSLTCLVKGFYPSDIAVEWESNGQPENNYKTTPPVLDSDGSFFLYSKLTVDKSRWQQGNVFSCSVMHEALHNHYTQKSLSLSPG
light: QIVLTQSPAIMSASPGEKVTMTCRASSSVSHMHWYQQKSGTSPKRWIYDTSKLASGVPARFSGSGSGTSYSLTISSVEAEDAATYYCQQWSSNPLTFGAGTKLELKRTVAAPSVFIFPPSDEQLKSGTASVVCLLNNFYPREAKVQWKVDNALQSGNSQESVTEQDSKDSTYSLSSTLTLSKADYEKHKVYACEVTHQGLSSPVTKSFNRGEC
notes: copies: 2 + 2
Q: Does B10 bind [3]?
A: Result: binds

Q: What about the “fold decrease in binding vs WT” value [1] of the same binder?
A: The value was 5 fold.

B11: chCB6-huIgG1 R301K (antibody, name in EU numbering)
heavy: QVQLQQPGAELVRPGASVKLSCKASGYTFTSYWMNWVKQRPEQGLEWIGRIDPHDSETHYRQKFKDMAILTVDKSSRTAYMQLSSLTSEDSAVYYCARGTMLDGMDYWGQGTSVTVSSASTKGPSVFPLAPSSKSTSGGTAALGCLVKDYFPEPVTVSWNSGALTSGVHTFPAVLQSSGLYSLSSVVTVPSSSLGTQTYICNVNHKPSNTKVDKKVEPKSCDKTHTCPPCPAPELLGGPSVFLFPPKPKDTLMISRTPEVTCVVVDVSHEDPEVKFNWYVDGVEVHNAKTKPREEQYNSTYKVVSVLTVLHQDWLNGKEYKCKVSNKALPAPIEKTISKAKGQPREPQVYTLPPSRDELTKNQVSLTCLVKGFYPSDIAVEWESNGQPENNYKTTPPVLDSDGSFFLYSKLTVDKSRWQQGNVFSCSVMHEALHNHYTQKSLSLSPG
light: QIVLTQSPAIMSASPGEKVTMTCRASSSVSHMHWYQQKSGTSPKRWIYDTSKLASGVPARFSGSGSGTSYSLTISSVEAEDAATYYCQQWSSNPLTFGAGTKLELKRTVAAPSVFIFPPSDEQLKSGTASVVCLLNNFYPREAKVQWKVDNALQSGNSQESVTEQDSKDSTYSLSSTLTLSKADYEKHKVYACEVTHQGLSSPVTKSFNRGEC
notes: copies: 2 + 2
Q: What does the source list for B11?
A: binding result [3]: binds; fold decrease in binding vs WT [1]: 5 fold

B12: chCB6-huIgG1 Y296T (antibody, name in EU numbering)
heavy: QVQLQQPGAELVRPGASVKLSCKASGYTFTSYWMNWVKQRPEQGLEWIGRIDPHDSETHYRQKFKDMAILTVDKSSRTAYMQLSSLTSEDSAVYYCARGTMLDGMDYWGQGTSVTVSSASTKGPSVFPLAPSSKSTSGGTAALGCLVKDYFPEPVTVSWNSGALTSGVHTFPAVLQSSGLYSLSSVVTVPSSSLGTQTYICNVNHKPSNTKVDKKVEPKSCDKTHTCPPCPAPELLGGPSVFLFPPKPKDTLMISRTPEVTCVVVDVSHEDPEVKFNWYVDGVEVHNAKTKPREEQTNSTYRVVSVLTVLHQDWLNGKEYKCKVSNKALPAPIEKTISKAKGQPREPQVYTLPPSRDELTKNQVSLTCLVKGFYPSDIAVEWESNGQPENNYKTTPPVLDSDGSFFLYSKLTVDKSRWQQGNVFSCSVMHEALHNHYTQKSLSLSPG
light: QIVLTQSPAIMSASPGEKVTMTCRASSSVSHMHWYQQKSGTSPKRWIYDTSKLASGVPARFSGSGSGTSYSLTISSVEAEDAATYYCQQWSSNPLTFGAGTKLELKRTVAAPSVFIFPPSDEQLKSGTASVVCLLNNFYPREAKVQWKVDNALQSGNSQESVTEQDSKDSTYSLSSTLTLSKADYEKHKVYACEVTHQGLSSPVTKSFNRGEC
notes: copies: 2 + 2
Q: How did the “fold decrease in binding vs WT” value [3] turn out when B12 was run?
A: The value was 3 fold.

Q: Does B12 bind [1]?
A: Result: no binding

B13: chCB6-huIgG1 Y296Q (antibody, name in EU numbering)
heavy: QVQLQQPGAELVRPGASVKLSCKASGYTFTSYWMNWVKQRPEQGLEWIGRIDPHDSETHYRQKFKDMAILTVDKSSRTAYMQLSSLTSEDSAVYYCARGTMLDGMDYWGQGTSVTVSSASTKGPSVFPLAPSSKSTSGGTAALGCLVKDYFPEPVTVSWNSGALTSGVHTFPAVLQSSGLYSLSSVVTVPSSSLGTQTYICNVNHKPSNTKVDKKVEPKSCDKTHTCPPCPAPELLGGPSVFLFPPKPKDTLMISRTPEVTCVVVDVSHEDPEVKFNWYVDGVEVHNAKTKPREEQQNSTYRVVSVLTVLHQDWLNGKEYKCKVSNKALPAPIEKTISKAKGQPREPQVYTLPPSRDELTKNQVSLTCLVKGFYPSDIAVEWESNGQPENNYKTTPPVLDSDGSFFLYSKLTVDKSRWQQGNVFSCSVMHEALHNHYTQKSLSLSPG
light: QIVLTQSPAIMSASPGEKVTMTCRASSSVSHMHWYQQKSGTSPKRWIYDTSKLASGVPARFSGSGSGTSYSLTISSVEAEDAATYYCQQWSSNPLTFGAGTKLELKRTVAAPSVFIFPPSDEQLKSGTASVVCLLNNFYPREAKVQWKVDNALQSGNSQESVTEQDSKDSTYSLSSTLTLSKADYEKHKVYACEVTHQGLSSPVTKSFNRGEC
notes: copies: 2 + 2
Q: Which “fold decrease in binding vs WT” value [3] does the source give for B13 here?
A: Its value is 4 fold.

Q: What about the “fold decrease in binding vs WT” value [1] of the same binder?
A: Its value is 5 fold.

B14: chCB6-huIgG1 R301N (antibody, name in EU numbering)
heavy: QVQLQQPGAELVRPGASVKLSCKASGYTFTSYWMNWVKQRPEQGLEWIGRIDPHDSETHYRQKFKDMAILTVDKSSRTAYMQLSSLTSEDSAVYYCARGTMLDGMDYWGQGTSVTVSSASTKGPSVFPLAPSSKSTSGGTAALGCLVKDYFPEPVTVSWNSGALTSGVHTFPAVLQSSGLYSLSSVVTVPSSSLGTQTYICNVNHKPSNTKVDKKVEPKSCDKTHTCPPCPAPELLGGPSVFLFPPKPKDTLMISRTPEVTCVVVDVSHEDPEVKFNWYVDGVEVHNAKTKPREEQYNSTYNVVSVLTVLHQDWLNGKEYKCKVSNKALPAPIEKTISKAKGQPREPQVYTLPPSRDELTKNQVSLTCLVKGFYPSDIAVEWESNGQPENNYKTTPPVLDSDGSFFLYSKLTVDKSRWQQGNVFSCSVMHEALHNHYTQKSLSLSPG
light: QIVLTQSPAIMSASPGEKVTMTCRASSSVSHMHWYQQKSGTSPKRWIYDTSKLASGVPARFSGSGSGTSYSLTISSVEAEDAATYYCQQWSSNPLTFGAGTKLELKRTVAAPSVFIFPPSDEQLKSGTASVVCLLNNFYPREAKVQWKVDNALQSGNSQESVTEQDSKDSTYSLSSTLTLSKADYEKHKVYACEVTHQGLSSPVTKSFNRGEC
notes: copies: 2 + 2
Q: For B14, which “fold decrease in binding vs WT” value [3] is on record?
A: The value was 3 fold.

Q: And the “fold decrease in binding vs WT” value [1]?
A: Its value is 5 fold.

B15: chCB6-huIgG1 S239D/A378K (antibody, name in EU numbering)
heavy: not shown
light: QIVLTQSPAIMSASPGEKVTMTCRASSSVSHMHWYQQKSGTSPKRWIYDTSKLASGVPARFSGSGSGTSYSLTISSVEAEDAATYYCQQWSSNPLTFGAGTKLELKRTVAAPSVFIFPPSDEQLKSGTASVVCLLNNFYPREAKVQWKVDNALQSGNSQESVTEQDSKDSTYSLSSTLTLSKADYEKHKVYACEVTHQGLSSPVTKSFNRGEC
notes: copies: 2 + 2
Q: How did the “fold increase in binding vs WT” value [2] turn out when B15 was run?
A: The value was 5 fold.

B16: chCB6-huIgG1 R301T (antibody, name in EU numbering)
heavy: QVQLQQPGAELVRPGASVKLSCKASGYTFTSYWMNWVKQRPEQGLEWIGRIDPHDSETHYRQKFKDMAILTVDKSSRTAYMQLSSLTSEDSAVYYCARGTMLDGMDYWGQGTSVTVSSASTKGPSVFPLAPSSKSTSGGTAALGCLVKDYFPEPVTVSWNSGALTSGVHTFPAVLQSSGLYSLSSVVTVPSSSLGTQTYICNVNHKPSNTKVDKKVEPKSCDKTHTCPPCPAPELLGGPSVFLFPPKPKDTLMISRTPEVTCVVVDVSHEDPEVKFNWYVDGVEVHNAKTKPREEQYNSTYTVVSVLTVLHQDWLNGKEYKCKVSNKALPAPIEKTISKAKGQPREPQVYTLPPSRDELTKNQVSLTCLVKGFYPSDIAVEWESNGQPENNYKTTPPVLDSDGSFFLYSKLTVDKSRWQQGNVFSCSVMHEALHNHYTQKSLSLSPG
light: QIVLTQSPAIMSASPGEKVTMTCRASSSVSHMHWYQQKSGTSPKRWIYDTSKLASGVPARFSGSGSGTSYSLTISSVEAEDAATYYCQQWSSNPLTFGAGTKLELKRTVAAPSVFIFPPSDEQLKSGTASVVCLLNNFYPREAKVQWKVDNALQSGNSQESVTEQDSKDSTYSLSSTLTLSKADYEKHKVYACEVTHQGLSSPVTKSFNRGEC
notes: copies: 2 + 2
Q: What does the source list for B16?
A: binding result [3]: binds; binding result [1]: binds

B17: chCB6-huIgG1 E294N (antibody, name in EU numbering)
heavy: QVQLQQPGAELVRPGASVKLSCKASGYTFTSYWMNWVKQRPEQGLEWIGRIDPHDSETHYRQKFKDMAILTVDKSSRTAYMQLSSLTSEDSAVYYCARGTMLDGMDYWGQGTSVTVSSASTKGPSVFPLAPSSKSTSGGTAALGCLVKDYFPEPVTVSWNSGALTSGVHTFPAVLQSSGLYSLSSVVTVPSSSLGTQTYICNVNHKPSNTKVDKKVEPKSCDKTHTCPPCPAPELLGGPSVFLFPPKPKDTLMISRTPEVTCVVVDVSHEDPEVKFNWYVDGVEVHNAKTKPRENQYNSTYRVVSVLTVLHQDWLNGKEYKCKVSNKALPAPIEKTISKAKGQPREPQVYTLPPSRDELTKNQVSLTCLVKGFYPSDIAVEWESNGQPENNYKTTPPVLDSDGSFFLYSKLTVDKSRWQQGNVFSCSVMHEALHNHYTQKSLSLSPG
light: QIVLTQSPAIMSASPGEKVTMTCRASSSVSHMHWYQQKSGTSPKRWIYDTSKLASGVPARFSGSGSGTSYSLTISSVEAEDAATYYCQQWSSNPLTFGAGTKLELKRTVAAPSVFIFPPSDEQLKSGTASVVCLLNNFYPREAKVQWKVDNALQSGNSQESVTEQDSKDSTYSLSSTLTLSKADYEKHKVYACEVTHQGLSSPVTKSFNRGEC
notes: copies: 2 + 2
Q: For B17, which “fold decrease in binding vs WT” value [3] is on record?
A: The value was 7 fold.

Q: And the “fold decrease in binding vs WT” value [1]?
A: The value was 8 fold.
